Source: publication PMC1820849, “Identification of a Small TAF Complex and Its Role in the Assembly of TAF-Containing Complexes” (PLoS ONE, 2007)

T1: YFP-SPT7L (human, UniProt O94864 1-414)
T1 construct: human SPT7L as a YFP fusion; vector described in earlier work; source: HeLa cells, transfected, in living cells
T1 sequence (looked up): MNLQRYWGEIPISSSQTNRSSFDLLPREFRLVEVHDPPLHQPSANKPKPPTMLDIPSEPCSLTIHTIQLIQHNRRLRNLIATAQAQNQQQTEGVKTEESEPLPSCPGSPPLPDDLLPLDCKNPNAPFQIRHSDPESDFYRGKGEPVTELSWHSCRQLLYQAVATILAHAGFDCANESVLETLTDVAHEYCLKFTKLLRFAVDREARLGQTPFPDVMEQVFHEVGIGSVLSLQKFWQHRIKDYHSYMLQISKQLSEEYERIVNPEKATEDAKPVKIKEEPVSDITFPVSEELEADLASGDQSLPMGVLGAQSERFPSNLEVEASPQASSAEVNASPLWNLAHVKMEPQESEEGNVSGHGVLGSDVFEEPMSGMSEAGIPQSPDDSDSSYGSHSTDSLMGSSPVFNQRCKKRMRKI

T2: YFP-TAF9 (UniProt Q16594 1-264)
T2 construct: TAF9 as a YFP fusion; the construct is not described; source: HeLa cells, transfected, in living cells
T2 sequence (looked up): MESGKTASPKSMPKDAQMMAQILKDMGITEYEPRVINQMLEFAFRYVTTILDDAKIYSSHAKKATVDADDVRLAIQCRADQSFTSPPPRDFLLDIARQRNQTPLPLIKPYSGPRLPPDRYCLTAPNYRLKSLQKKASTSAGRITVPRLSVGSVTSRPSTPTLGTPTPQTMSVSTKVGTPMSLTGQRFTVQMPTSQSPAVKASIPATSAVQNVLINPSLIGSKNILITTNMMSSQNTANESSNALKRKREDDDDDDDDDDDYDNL

B1: CFP-TAF8 (natural protein, UniProt Q7Z7C8 1-310, looked up)
chain: MADAAATAGAGGSGTRSGSKQSTNPADNYHLARRRTLQVVVSSLLTEAGFESAEKASVETLTEMLQSYISEIGRSAKSYCEHTARTQPTLSDIVVTLVEMGFNVDTLPAYAKRSQRMVITAPPVTNQPVTPKALTAGQNRPHPPHIPSHFPEFPDPHTYIKTPTYREPVSDYQVLREKAASQRRDVERALTRFMAKTGETQSLFKDDVSTFPLIAARPFTIPYLTALLPSELEMQQMEETDSSEQDEQTDTENLALHISMEDSGAEKENTSVLQQNPSLSGSRNGEENIIDNPYLRPVKKPKIRRKKSLS
notes: TAF8 as a CFP fusion; vector described in earlier work; source: HeLa cells, transfected, in living cells
B2: CFP-TAF6 (natural protein)
chain: not shown
notes: TAF6 as a CFP fusion; the construct is not described; source: HeLa cells, transfected, in living cells

How the values were obtained:
Test in all cases: FRET or BRET; sensitized emission FRET in the nucleus of living HeLa cells transfected with CFP and YFP fusion vectors; mean FRET efficiency of cells above a 5% threshold
Settings in all cases: partners not purified
[1] = biological target: T3, YFP-TAF10 (human, UniProt Q12962 1-218)
T3 construct: human TAF10 as a YFP fusion; vector described in earlier work; source: HeLa cells, transfected, in living cells

[2] = biological target: T1, YFP-SPT7L
[3] = biological target: T2, YFP-TAF9

T3 sequence (Q12962 whole entry, the tested form may be a part): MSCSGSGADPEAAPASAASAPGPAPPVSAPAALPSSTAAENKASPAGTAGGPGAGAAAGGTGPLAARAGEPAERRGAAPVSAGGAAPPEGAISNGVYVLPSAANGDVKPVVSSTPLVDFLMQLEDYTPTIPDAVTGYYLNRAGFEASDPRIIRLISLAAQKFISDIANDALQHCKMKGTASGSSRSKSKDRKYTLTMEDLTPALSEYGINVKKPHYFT

Binder | FRET efficiency [1] | FRET efficiency [2] | FRET efficiency [3]
B1 | 16.9% | 15.8% | 
B2 |  |  | 27.1%
